Data on 4 sequences can be found in the supplement of paper PMC5998384.

The subject of data set [1] is HeLa Kyoto. Nature of the data set: solubility change mitosis vs G1/S (difference of NP-40 vs SDS log2 ratios) (log2 ratio difference); higher = more soluble in mitosis.
Data set [2] relates to HeLa Kyoto. Nature of the data set: melting temperature (median over replicates), in situ; higher = more thermally stable.
The test system of data set [3] is HeLa Kyoto. Nature of the data set: thermal stability score vs G1/S (z-score of summed log2 fold changes over temperatures); higher = more thermally stable than in G1/S.
Data set [4] relates to HeLa Kyoto. Nature of the data set: solubility in G1/S (NP-40 vs SDS abundance) (log2 ratio); higher = more soluble. To be noted: cell cycle stage: G1/S.
Setting [5] is: cell cycle stage: early G1 (4.5 h after nocodazole release).
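For melting temperature (median over replicates), in situ in this document: HeLa Kyoto cells synchronized by double thymidine or nocodazole block, proteins quantified by TMT10plex mass spectrometry, three independent biological replicates.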
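For solubility change mitosis vs G1/S (difference of NP-40 vs SDS log2 ratios) in this document: synchronized HeLa Kyoto cells (double thymidine block for G1/S, nocodazole release for mitosis), protein amounts in NP-40 versus SDS lysates quantified by mass spectrometry, three biological replicates.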
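For solubility in G1/S (NP-40 vs SDS abundance) in this document: HeLa Kyoto cells arrested at G1/S by double thymidine block, proteins quantified by TMT10plex mass spectrometry in mild NP-40 versus SDS extracts, three biological replicates.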
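For thermal stability score vs G1/S (z-score of summed log2 fold changes over temperatures) in this document: synchronized HeLa Kyoto cells, proteins quantified by TMT10plex mass spectrometry, three biological replicates, mitosis taken 0.5 h after nocodazole release, G1/S directly after double thymidine block.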

Turning to “MSGYSSDRDRGRDRGFGAPRFGGSRAGPLSGKKFGNPGEKLVKKKWNLDELPKFEKNFYQEHPDLARRTAQEVETYRRSKEITVRGHNCPKPVLNFYEANFPANVMDVIARQNFTEPTAIQAQGWPVALSGLDMVGVAQTGSGKTLSYLLPAIVHINHQPFLERGDGPICLVLAPTRELAQQVQQVAAEYCRACRLKSTCIYGGAPKGPQIRDLERGVEICIATPGRLIDFLECGKTNLRRTTYLVLDEADRMLDMGFEPQIRKIVDQIRPDRQTLMWSATWPKEVRQLAEDFLKDYIHINIGALELSANHNILQIVDVCHDVEKDEKLIRLMEEIMSEKENKTIVFVETKRRCDELTRKMRRDGWPAMGIHGDKSQQERDWVLNEFKHGKAPILIATDVASRGLDVEDVKFVINYDYPNSSEDYIHRIGRTARSTKTGTAYTFFTPNNIKQVSDLISVLREANQAINPKLLQLVEDRGSGRSRGRGGMKDDRRDRYSAGKRGGFNTFRDRENYDRGYSSLLKRDFGAKTQNGVYSAANYTNGSFGSNFVSAGIQTSFRTGNPTGTYQNGYDSTQQYGSNVPNMHNGMNQQAYAYPATAAAPMIGYPMPTGYSQ [DDX5]”, the “solubility change mitosis (log2)” value in data set [1] worked out at 0.397. Moreover, the values for the melting temperature in data set [2] (cell cycle stage: G1/S) and in data set [2] (cell cycle stage: mitosis) were 47.2 °C and 48.4 °C, respectively. In addition, the thermal stability score is 3.64 in data set [3] (setting [5]) and 11.3 in data set [3] (cell cycle stage: mitosis). In addition, the “solubility in G1/S (log2)” value in data set [4] is -0.551.

Turning to “MSHPSWLPPKSTGEPLGHVPARMETTHSFGNPSISVSTQQPPKKFAPVVAPKPKYNPYKQPGGEGDFLPPPPPPLDDSSALPSISGNFPPPPPLDEEAFKVQGNPGGKTLEERRSSLDAEIDSLTSILADLECSSPYKPRPPQSSTGSTASPPVSTPVTGHKRMVIPNQPPLTATKKSTLKPQPAPQAGPIPVAPIGTLKPQPQPVPASYTTASTSSRPTFNVQVKSAQPSPHYMAAPSSGQIYGSGPQGYNTQPVPVSGQCPPPSTRGGMDYAYIPPPGLQPEPGYGYAPNQGRYYEGYYAAGPGYGGRNDSDPTYGQQGHPNTWKREPGYTPPGAGNQNPPGMYPVTGPKKTYITDPVSAPCAPPLQPKGGHSGQLGPSSVAPSFRPEDELEHLTKKMLYDMENPPADEYFGRCARCGENVVGEGTGCTAMDQVFHVDCFTCIICNNKLRGQPFYAVEKKAYCEPCYINTLEQCNVCSKPIMERILRATGKAYHPHCFTCVMCHRSLDGIPFTVDAGGLIHCIEDFHKKFAPRCSVCKEPIMPAPGQEETVRIVALDRDFHVHCYRCEDCGGLLSEGDNQGCYPLDGHILCKTCNSARIRVLTAKASTDL”, the “solubility change mitosis (log2)” value in data set [1] was -0.115. Also, the values for the melting temperature in data set [2] (cell cycle stage: G1/S) and in data set [2] (cell cycle stage: mitosis) were 55.6 °C and 54.4 °C, respectively. The thermal stability score in data set [3] (setting [5]) was -2.33; in data set [3] (cell cycle stage: mitosis) it was -1.52. Besides, the “solubility in G1/S (log2)” value in data set [4] worked out at 0.203.

“MSHTEVKLKIPFGNKLLDAVCLVPNKSLTYGIILTHGASGDMNLPHLMSLASHLASHGFFCLRFTCKGLNIVHRIKAYKSVLNYLKTSGEYKLAGVFLGGRSMGSRAAASVMCHIEPDDGDDFVRGLICISYPLHHPKQQHKLRDEDLFRLKEPVLFVSGSADEMCEKNLLEKVAQKMQAPHKIHWIEKANHSMAVKGRSTNDVFKEINTQILFWIQEITEMDKKCH [TEX30]”: in data set [1], the “solubility change mitosis (log2)” value was -0.146. Also, the melting temperature in data set [2] (cell cycle stage: G1/S) was 48.7 °C; in data set [2] (cell cycle stage: mitosis), 49 °C. For the same sequence, the thermal stability score in data set [3] (setting [5]) was 0.36; in data set [3] (cell cycle stage: mitosis), 0.539. In data set [4], the “solubility in G1/S (log2)” value is 0.199.

With “MSKGTSSDTSLGRVSRAAFPSPTAAEMAEISRIQYEMEYTEGISQRMRVPEKLKVAPPNADLEQGFQEGVPNASVIMQVPERIVVAGNNEDVSFSRPADLDLIQSTPFKPLALKTPPRVLTLSERPLDFLDLERPPTTPQNEEIRAVGRLKRERSMSENAVRQNGQLVRNDSLWHRSDSAPRNKISRFQAPISAPEYTVTPSPQQARVCPPHMLPEDGANLSSARGILSLIQSSTRRAYQQILDVLDENRRPVLRGGSAAATSNPHHDNVRYGISNIDTTIEGTSDDLTVVDAASLRRQIIKLNRRLQLLEEENKERAKREMVMYSITVAFWLLNSWLWFRR [MFF]”, the “solubility change mitosis (log2)” value in data set [1] is -0.00278. For the same sequence, the melting temperature was found to be 51.6 °C in data set [2] (cell cycle stage: G1/S) and 52.6 °C in data set [2] (cell cycle stage: mitosis). Further, the thermal stability score amounted to 0.544 in data set [3] (setting [5]) and 1.39 in data set [3] (cell cycle stage: mitosis). The “solubility in G1/S (log2)” value in data set [4] is 0.532.
